The target of experiment [1] is HLA-A*68:02. Nature of the experiment: IEDB peptide-MHC binding, purified MHC/competitive/radioactivity; filed as Kd, often an IC50 or EC50 that approximates it; ≥ and ≤ were set here for values at or beyond the usual limits of such assays.
Experiment [2] concerns the target HLA-B*08:01. The description is as above.
Experiment [3] has as its target HLA-A*32:01. Described as above.
For experiment [4], the target named is HLA-A*02:01. As to the kind of experiment: IEDB peptide-MHC binding, purified MHC/competitive/fluorescence; ≥ and ≤ were set here for values at or beyond the usual limits of such assays.
Experiment [5] concerns the target HLA-A*24:02. The experiment is described as above.
Experiment [6] addresses HLA-A*02:06. As to the kind of experiment: IEDB peptide-MHC binding, purified MHC/competitive/radioactivity; filed as Kd, often an IC50 or EC50 that approximates it; ≥ and ≤ were set here for values at or beyond the usual limits of such assays. Particulars: source organism: Dengue virus 4 Philippines/H241/1956.
In experiment [7] the target is HLA-B*44:02. The description is as above. Particulars: source organism: Dengue virus 4 Dominica/814669/1981.
Experiment [8] addresses HLA-A*23:01. The description is as above.
Experiment [9] addresses HLA-A*24:02. The description is as above.
Experiment [10] deals with HLA-B*15:01. Described as above. Particulars: source organism: Vaccinia virus Copenhagen.
Experiment [11] deals with HLA-A*01:01. The experiment is described as above.
Experiment [12] concerns the target HLA-A*26:01. Described as above. Particulars: source organism: SARS coronavirus Tor2.
Experiment [13] deals with HLA-A*29:02. The experiment is described as above. Particulars: source organism: SARS coronavirus Tor2.
Experiment [14] addresses HLA-A*30:02. The description is as above. Particulars: source organism: SARS coronavirus Tor2.
For experiment [15], the target named is HLA-B*27:03. Nature of the experiment: IEDB peptide-MHC binding, purified MHC/competitive/fluorescence; filed as Kd, often an IC50 or EC50 that approximates it; ≥ and ≤ were set here for values at or beyond the usual limits of such assays. Particulars: source organism: Yersinia enterocolitica.
For experiment [16], the target named is HLA-B*15:01. The description is as above. Particulars: source organism: Yersinia enterocolitica.
Experiment [17] deals with HLA-A*26:01. Described as above. Particulars: source organism: Yersinia enterocolitica.
In experiment [18] the target is HLA-B*18:01. Described as above. Particulars: source organism: Yersinia enterocolitica.
Experiment [19] concerns the target HLA-B*39:01. The experiment is described as above. Particulars: source organism: Yersinia enterocolitica.
The target in experiment [20] is HLA-B*57:01. The description is as above. Particulars: source organism: Yersinia enterocolitica.
The target in experiment [21] is HLA-B*46:01. The experiment is described as above. Particulars: source organism: Yersinia enterocolitica.
[22] abbreviates: source organism: Vaccinia virus WR.
Setting [23] is: source organism: Dengue virus 4 Philippines/H241/1956.
Where [24] appears, read: source organism: Zaire ebolavirus.
The mark [25] stands for this setting: source organism: Dengue virus 2 Jamaica/1409/1983.
[26] abbreviates: source organism: Vaccinia virus Copenhagen.
[27] abbreviates: source organism: SARS coronavirus Tor2.
[28] abbreviates: source organism: Vaccinia virus.

By Kd is commonly meant a measure of binding affinity in units of concentration. Take ELVKVREKQL: the Kd in experiment [1] (source organism: Homo sapiens) was 4.33 µM.

In the case of QKKKQRSGVL, the Kd in [2] (source organism: Dengue virus 1 Brazil/97-11/1997) turned out to be 1.87 µM.

Consider YPHYKSCAL, for which, in experiment [2] (setting [22]), the Kd is 1.01 µM.

For the sequence QVFGSVYTT, the Kd in experiment [3] (setting [23]) amounted to 8.25 µM.

Broadly, the IC50 is the concentration that inhibits the measured activity by half. A lower IC50 goes with greater potency in that assay. As for RSNTTGKLI, the IC50 was at least 805 µM in experiment [4] (setting [24]) and 44.1 µM in experiment [5] (setting [24]).

Take MVAGGLLLA: the results for the Kd in [1] (setting [23]) and in experiment [6] were 0.0556 µM and 0.0176 µM, respectively.

On to EKMRRERAA, for which the Kd in experiment [2] (setting [22]) is 0.00184 µM.

Regarding DDPTDSQDT, the IC50 in [5] (setting [24]) was 69.4 µM.

As to RLMSINRGF, in experiment [3] (setting [22]), the Kd amounted to 0.00299 µM.

Turning to ELMYIFAAL, in experiment [2] (setting [22]), the Kd came out at 0.0304 µM.

Take YLRDHFYNL: the Kd in experiment [2] (setting [22]) worked out at 0.0083 µM.

With SDLKYSWKTW, the Kd in [3] (source organism: Dengue virus 4 Dominica/814669/1981) was found to be 0.683 µM; in experiment [7], 1.01 µM.

KREDQWCGSL: in experiment [2] (setting [25]), the Kd turned out to be 7.72 µM.

With VMLLVHYAI, the Kd was 95.5 nM in experiment [8] (setting [23]), 0.0116 µM in experiment [3] (setting [23]) and 0.0544 µM in experiment [9] (setting [23]).

Take MIFFNPVSF: the Kd in [10] was 0.00943 µM; in experiment [3] (setting [26]), 0.000462 µM.

INREGKVVGL: the Kd in experiment [2] (source organism: Dengue virus 3 Martinique/1243/1999) was found to be 10.9 µM.

In the case of IIFDIYFAI, the Kd in [3] (setting [22]) was determined as 0.000934 µM.

Regarding TTANWLWALL, the Kd in experiment [1] (setting [23]) amounted to 0.0045 µM; in [11] (setting [23]) it was 12.3 µM.

Turning to ESASKSASVY, the Kd in [12] was 0.286 µM; in [13] it was 0.374 µM; in experiment [8] (setting [27]) it was at least 70000 nM; in experiment [11] (setting [27]), 0.3 µM; in experiment [9] (setting [27]), at least 70.3 µM; in experiment [14], 0.659 µM.

Take VFYRSGTET: the IC50 in [5] (setting [26]) is at least 148 µM.

Take RTVSVMFFI: the Kd was at least 20 µM in [15]; at least 20 µM in [16]; at least 20 µM in experiment [17]; at least 20 µM in experiment [18]; at least 20 µM in [19]; 1.24 µM in experiment [20]. The Kd in experiment [21] was at least 20 µM.

In turn, IYRGVNFAE displayed an IC50 in experiment [5] (source organism: Sudan ebolavirus) of 4.97 µM.

Consider MEKSSKYYI, for which the IC50 in experiment [4] (setting [28]) is at least 1680 µM; in experiment [5] (setting [28]), 1.66 µM.

In the case of LTIPPTAGI, the Kd in [1] (setting [25]) is 0.00207 µM.

As for NSKVQIGEY, the Kd was 0.235 µM in experiment [12]; 2.27 µM in [13]; at least 77800 nM in experiment [8] (setting [27]); at least 37.7 µM in experiment [11] (setting [27]); at least 34.8 µM in experiment [9] (setting [27]); 0.0572 µM in experiment [14].

SKKFKFNSQ: the Kd in experiment [2] (setting [22]) worked out at 6.99 µM.

Take SLNFRFENV: the Kd in experiment [2] (setting [22]) was determined as 0.586 µM.

For the sequence MTCIAVGGI, the Kd in experiment [1] (setting [23]) was 0.074 µM.

FYLCFLAFLL: the Kd in experiment [12] was at least 69.7 µM; in experiment [13], 0.0767 µM; in [8] (setting [27]), 0.0676 nM; in [11] (setting [27]), at least 52.5 µM; in experiment [9] (setting [27]) it was 0.0136 µM; in experiment [14], at least 85.7 µM.

On to NKKYRCMAL, for which, in [2] (setting [22]), the Kd was 0.00187 µM.

Source of the values: the Immune Epitope Database (IEDB).
